# Experimental data from patent US20240279332A1 (Amgen, published 2024).
# Residue numbers refer to the chain shown, from its start.
# T1: cyno TREM-1 on cells (cynomolgus monkey, UniProt A0A2K5VHG8 21-233)
# T1 sequence: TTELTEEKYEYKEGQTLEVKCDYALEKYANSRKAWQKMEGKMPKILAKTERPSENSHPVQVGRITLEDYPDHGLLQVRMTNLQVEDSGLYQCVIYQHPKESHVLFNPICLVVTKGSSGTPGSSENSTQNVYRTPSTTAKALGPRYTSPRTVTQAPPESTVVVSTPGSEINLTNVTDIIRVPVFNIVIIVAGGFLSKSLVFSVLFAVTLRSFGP
# B1: 61G5 (antibody, V domains shown)
# VH: QVQLVQSGAEVKKPGASVKVSCKASGYTFTSYDINWVRQATGQGLEWMGWMNPNSGNSGSVKKFRDRVTMTRNTSISTAYMELSSLRSEDTAVYYCVRLIGYSSAWKWSFQHWGQGTLVTVSS
# VL: DIQMTQSPSSLSASVGDRVTITCQASRDISKYLNWYQQKPGKAPKLQIYDASNLETGVPSRFSGSGSGTDFTFTISSLQPEDIATYYCQHYDNIPITFGQGTRLEIKR
# B2: 50A12 (antibody, V domains shown)
# VH: EVQLVESGGGLVQPGGSLRLSCAASGFTFSSYWMSWVRQAPGKGLEWVANIKQDGSEEYYVDSVKGRFTISRDNAKNSLFLQMNSLRAEDTAVYYCARDYGDSFDYWGQGTLVTVSS
# VL: DIQMTQSPSSVSASVGDRVTITCRASQGIRKWLAWYQQKPGRAPKLLIYAASRLQSGVPSRFSGSGSGTDFTLTISSLRPEDFATYYCLQAHGFPWTFGQGTKVEIKR
# B3: 66B8 (antibody, V domains shown)
# VH: QVQLVQSGAEVKKPGASVKVSCKASGYTFTGYYMHWVRQAPGQGLEWMGWFKPNSGVTNYAQKFQGRVTMSRDTSISTAYMELSSLRSDDTAVYYCARAGYSTSWKDWFDPWGQGTLVTVSS
# VL: DIQMTQFPSSVSASVGDRVTITCRASQGISRWLAWYQQKQGKAPKLLIYMVSSLQSGVPSRFSGSGSGTDFTLTISSLQPEDFATYYCQQSHNFPITFGQGTRLDIKR
# B4: 57C10 (antibody, V domains shown)
# VH: QVQLVQSGAEVKKPGASVKVSCKASGYTFTRYDINWVRQATGQGLEWMGWLNPNSGNTGQTQKFRGRVTMTRNTSINTAYMELSSLRSEDTAVYYCARGGYTSAWRWYFDLWGRGTLVTVSS
# VL: DIQMTQSPSSLSASVGDRVTITCQASQDINNHLNWYQQKPGKAPKLLIYDVSNLETGVPSSFSGSGCGTDFTFTISSLQPEDIATYFCQQYDKLPLTFGGGTKVEIEG
# B5: 63F8 (antibody, V domains shown)
# VH: QVQLVQSGAEVKKPGASVKVSCKASGYTFTSYDINWVRQATGQGLEWMGRMNPKSGNAGYVQNFRGRVTMTRNTSISTAYMELSSLRSEDTAVYYCARGGRTSIWSFVFDYWGQGTLVTVSS
# VL: B4 VL with N30S, N31K, V51T, S61R, C67S, F87N, E107K, G108R
# B6: 61B12 (antibody, V domains shown)
# VH: QVQLVQSGAEVTKPGASVKVSCKASGYTFTRYDINWVRQATGQGLEWMGWMNPNSGNSGSVQKFRGRVTMTRNTSITTVYMELSSLRSDDTAVYYCARGGISSSWHWAFDIWGQGTMVTVSS
# VL: B4 VL with D50G, V51A, S52Y, N53T, S61R, C67S, F87Y, E107K, G108R
# B7: 64D7 (antibody, V domains shown)
# VH: QVQLVQSGAEVKKPGASVKVSCKASGYTFTSYDINWVRQATGQGLEWMGWMNPNRGNTGYVKKFQGRVTMTRNTSISTAYMELSSLRSEDTAVYYCARRRAVYRSSWEWYFDLWGRGTLVTVSS
# VL: DTQMTQSPSSLSASEGDRVTITCQASQDIFNDLNWYQEKPGKAPKLLIYHASNLETGVPSRFSGSGSGTDYTFTISSLQPEDIATYYCQQYGNLPLTFGGGTKVEIKR
# B8: 49A2 (antibody, V domains shown)
# VH: EVQLVESGGGLVQPGGSLRLSCAASGFTFSSNWMSWVRQAPGKGLDWMASMKQDGSEIYYVDSVKGRFTISRDNAKNSLHLQMNSLRAEDTAVYYCVRGGWRFESWGQGALVTVSS
# VL: EIVMTQSPATLSVSPGERATLSCRASQSVSSNLAWYQQKSGQAPRLLIYGASIRATGIPARVSGSGSGTEFTFTISSLQSEDFAVYYCQQYKNWPLTLGGGTKVEIKR
# B9: 30H2 (antibody, V domains shown)
# VH: EVQVLESGGGLVQPGESLRLSCTASGFTFNAYAMSWVRQAPGKGLEWVSTISGSGSTTYYADSVKGRFTISRDNSKNTLDLQMNSLRAADTAVYYCAKVAGSNFFFDHWGQGTLVTVSS
# VL: EIVMTQSPATLSVSPGERATLSCRASQSINSNLAWYQQKPGQAPRLLIYGAYTRATGIPDRFSGSGSGTEFTLTISSLQSEDFAVYYCQEFIMWPPWTFGLGTQVEIKR
# B10: 46H7 (antibody, V domains shown)
# VH: EVQLLESGGGMVQPGGSLRLSCAVSGFTFSRYAMSWVRQAPGKGLEWVSEMRGSSGSTYYADSVKGRFTISRDNSKNTLYLQMNSLRVEDTAIYYCAKEFSSNSLFDYWGQGTLVTVSS
# VL: B9 VL with I29V, Q42R, Y52S, D60A, E90Q, I92Y, M93N, L101Q, Q104K
# B11: 44A5 (antibody, V domains shown)
# VH: EVQLLESGGGLVQPGGSLRLSCAASGFTFSTYAMNWVRQAPGKGLEWVSTVSGSGRPTYYADSVKGRFTISRDNSKNTLYLQMNSLRAEDTAVYYCAKAYYSNYLFDYWGQGTLVTVSS
# VL: EIVMTQSPAILSVSPGERATLSCRASQSVSSNLAWYQQKPGQAPRLLIYGASTRATGVPARFSGGGSGTDFTLTISSLQSEDFAVYYCQHCKTWPPLTFGGGTKVDLKR
# Molecular target: T1, cyno TREM-1 on cells
# Test: cell-based or functional assay
"Ab IC50-Cyno PBMC (Trial 2), TNFα release after cyno PGLYRP1/PGN [pM]","Ab IC50-Cyno PBMC (Trial 1), TNFα release after cyno PGLYRP1/PGN [pM]",Binder
2340,,B1
,2000,B2
23.2,114,B3
28.4,154,B4
16.1,22.6,B5
17.4,46.9,B6
780,6940,B7
266,732,B8
,3770,B9
9.7,95.1,B10
9.1,57.9,B11
